koff data for one sequence are collected here from patent US20260234290.

Assay in all cases: BLI
(BLI is a label-free optical method that tracks binding on a fibre tip over time.)

The subject of one data set is 3C8 Fab. Particulars: 2 uM Fab; RT; described as weak binding.
The subject of a further data set is 2B12 Fab. The following applies: 2 uM Fab; RT; weak binder; printed as second 3B12 in Table 4, 2B12 in text.
The subject of a further data set is 3B11 Fab. Particulars: 2 uM Fab; RT; described as weak binding.
The subject of a further data set is 3B12 Fab. Particulars: 2 uM Fab; RT; described as weak binding.
For the next data set, the system named is 2C11 Fab. The following applies: 2 uM Fab; RT; weak binder.

A word on the koff: it is the first-order rate constant of dissociation. Turning to “CATTTCCCGTAAATC (double strand) [CS3D (cyclic STAT3 decoy)]”, the koff in the data set on 3C8 Fab was 0.277 s⁻¹; in the data set on 2B12 Fab it was 0.37 s⁻¹; in the data set with 3B11 Fab, 0.205 s⁻¹; in the data set on 3B12 Fab it was 0.0764 s⁻¹; with 2C11 Fab, 0.419 s⁻¹.
